Measured values from US20240076392A1 (IGM BIOSCIENCES, published 2024).
Where a chain is given by its changes, count along the chain named.

Tests used:
[1] = molecular target: T1, recombinant human CD123 protein (CD123, Fc-Fusion (IgG1) Avi-Tag, Biotin-Labeled, BPS Bioscience Cat.100068-2) (human, UniProt P26951 19-305, limits assumed, biotin-labeled (Avi-Tag)); test: BLI (Octet), CD123-Fc on anti-human Fc sensors, IgM in solution
T1 construct: Bought protein; not shown: IgG1 Fc; Avi-Tag
T1 sequence (looked up): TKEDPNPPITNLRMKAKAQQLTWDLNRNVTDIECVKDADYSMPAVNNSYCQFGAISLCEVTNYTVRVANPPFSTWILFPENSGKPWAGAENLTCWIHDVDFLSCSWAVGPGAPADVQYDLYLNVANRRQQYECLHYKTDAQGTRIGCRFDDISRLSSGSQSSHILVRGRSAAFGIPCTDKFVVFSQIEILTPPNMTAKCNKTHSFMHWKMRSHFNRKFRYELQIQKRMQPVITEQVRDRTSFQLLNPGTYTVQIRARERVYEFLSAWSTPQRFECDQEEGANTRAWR

Human CD123 = molecular target: T2, Human CD123; test: ELISA, plate coated with 0.2 ug/mL recombinant human CD123 (Sino Biological), detection with HRP anti-human kappa, chemiluminescence
T2 construct: It is a different reagent from m11 (Acro, His) and m13 (BPS, Fc); also called recombinant human CD123 protein (Sino Biological 10518-H08H-50); not shown: The tag of the vendor's product
T2 chain: T1 sequence (looked up)
Experimental: 96-well white polystyrene ELISA plates (Pierce 15042) were coated with 100 μL per well of 0.2 μg/mL recombinant human CD123 protein (Sino Biological 10518-H08H-50) or 0.5 μg/ml recombinant human CD3ε protein (Acro Biosystems, CDE-H5256-100) overnight at 4° C. Plates were then washed 5 times with 0.05% PBS-Tween and blocked with 2% BSA-PBS. After blocking, 100 μL of serial dilutions of CD123×CD3 IgM antibodies, standards, and controls were added to the wells and incubated at room temperature for 2 hours. The plates were then washed 10 times and incubated with HRP conjugated mouse anti-human kappa (Southern Biotech, 9230-05. 1:6000 diluted in 2% BSA-PBS) for 30 min. After 10 final washes using 0.05% PBS-Tween, the plates were read out using SuperSignal chemiluminescent substrate (ThermoFisher, 37070). Luminescent data were collected on an EnVision plate reader (Perkin-Elmer) and analyzed with GraphPad Prism using a 4-parameter logistic model.

[2] = molecular target: T3, recombinant human CD123 protein (CD123)-His Acrobio #ILA-H52H6 (human, UniProt P26951 19-305); test: BLI (Octet), CD123-His on anti-penta-His sensors, IgG in solution, 1:1 global fit
T3 construct: Bought protein; also called hu IL-3R alpha (CD123)-His; not shown: His tag
T3 sequence (looked up): T1 sequence (looked up)
Experimental: PBST (1×PBS+1% BSA+0.05% Tween-20) buffer was used as Antibody/CD123 dilution and sensor hydration buffer. The experiment followed a five-step sequential assay at 24° C. First, biosensors were hydrated for 10 minutes. Samples and buffer were applied in 384-well plate. After initial baseline for 60 s, sensors were loaded with 7 nM hu IL-3R alpha (CD123)-His Acrobio #ILA-H52H6. The biosensors were dipped into PBST for 20 s to reach baseline, then incubated for 420 s with 2-fold serial diluted anti-CD123 antibodies starting at 10 nM for association, followed by 900 s in PBST for dissociation. Results were analyzed by ForteBio Data Analysis software 9.0 using 1:1 global fit model.

B1: h32716-1-1 IgM (CD123xCD3 IgM antibody) (bispecific antibody)
VH: QVQLVQSGAEVKKPGSSVKVSCKASGYIFTNYGMNWVRQAPGQGLEWMGWINTYTGESTYSADFKGRVTITADESTSTAYMELSSLRSEDTAVYYCARSGGYDPMDYWGQGTLVTVSS
VL: DIVMTQSPDSLAVSLGERATINCRASESVDNYGNTFMHWYQQKPGQPPKLLIYRASNLESGVPDRFSGSGSGTDFTLTISSLQAEDVAVYYCQQSNEDPPTFGQGTRLEIK
chain: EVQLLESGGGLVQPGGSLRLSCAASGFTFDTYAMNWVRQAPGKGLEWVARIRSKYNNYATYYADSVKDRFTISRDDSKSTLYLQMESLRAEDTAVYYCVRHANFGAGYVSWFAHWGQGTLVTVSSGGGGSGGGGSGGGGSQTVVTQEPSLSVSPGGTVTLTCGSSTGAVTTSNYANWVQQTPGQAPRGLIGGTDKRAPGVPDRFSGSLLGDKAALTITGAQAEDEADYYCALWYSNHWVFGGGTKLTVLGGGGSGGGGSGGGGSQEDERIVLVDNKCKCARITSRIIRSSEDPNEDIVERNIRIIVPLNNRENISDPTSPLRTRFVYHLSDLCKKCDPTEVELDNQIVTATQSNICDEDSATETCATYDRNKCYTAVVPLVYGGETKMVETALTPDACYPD
notes: Pentameric IgM with modified J-chain
For B1, the Kd [1] was less than 0.001 nM, the koff [1] was less than 1e-07 s⁻¹ and the kon [1] was 3.9e+06 M⁻¹ s⁻¹. For the same binder, the “EC50 (read off the curve)” value (Human CD123) was 0.1 to 0.2 nM.

B2: h32716-2-1 IgG (antibody, V domains shown)
VH: B1 VH with R38K, V68F, I70F, A72L
VL: B1 VL
notes: Human IgG format
Work on B2 yielded a Kd [2] of 0.45 nM, a koff [2] of 0.00049 s⁻¹ and a kon [2] of 1.1e+06 M⁻¹ s⁻¹.

B3: h32716-3-1 IgG (antibody, V domains shown)
VH: B1 VH with R38K, L45F, E46K, V68F, I70F, A72L
VL: B1 VL
notes: Human IgG format
Binder B3 has a Kd [2] of 0.25 nM, a koff [2] of 0.00031 s⁻¹ and a kon [2] of 1.2e+06 M⁻¹ s⁻¹.

B4: h32716-1-1 IgG (antibody, V domains shown)
VH: B1 VH
VL: B1 VL
notes: Human IgG format
In the case of B4, the Kd [2] is reported as 0.36 nM, the koff [2] is reported as 0.0004 s⁻¹ and the kon [2] is reported as 940000 M⁻¹ s⁻¹.

B5: h32716-4-2 IgM (CD123xCD3 IgM antibody) (bispecific antibody)
VH: QVQLVQSGPELKKPGASVKVSCKASGYIFTNYGMNWVRQAPGQGLEWMGWINTYTGESTYSADFKGRFVFSLDTSVSTAYLQISSLKAEDTAVYYCARSGGYDPMDYWGQGTLVTVSS
VL: DIQMTQSPSSLSASVGDRVTITCRASESVDNYGNTFMHWYQQKPGKAPKLLIYRASNLESGVPSRFSGSGSGTDFTFTISSLQPEDIATYYCQQSNEDPPTFGQGTKVEIK
chain: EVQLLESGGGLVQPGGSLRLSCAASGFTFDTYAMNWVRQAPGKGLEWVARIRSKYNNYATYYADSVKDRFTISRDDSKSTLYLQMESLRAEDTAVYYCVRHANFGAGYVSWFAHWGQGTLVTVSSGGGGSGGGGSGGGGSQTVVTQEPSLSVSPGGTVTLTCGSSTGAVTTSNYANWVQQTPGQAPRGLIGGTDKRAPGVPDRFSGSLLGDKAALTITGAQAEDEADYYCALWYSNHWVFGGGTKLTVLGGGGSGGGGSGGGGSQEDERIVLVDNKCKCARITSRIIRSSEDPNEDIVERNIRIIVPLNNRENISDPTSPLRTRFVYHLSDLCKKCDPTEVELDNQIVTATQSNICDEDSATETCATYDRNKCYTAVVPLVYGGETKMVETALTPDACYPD
notes: as for B1
Binder B5 has a Kd [1] of 0.00443 nM, a koff [1] of 1.69e-05 s⁻¹ and a kon [1] of 3.82e+06 M⁻¹ s⁻¹. The “EC50 (read off the curve)” value (Human CD123) was roughly 0.08 nM.

B6: h32716-5-2 IgG (antibody, V domains shown)
VH: B5 VH with R38K
VL: B5 VL
notes: Human IgG format
B6 showed a Kd [2] of 0.71 nM, a koff [2] of 0.00045 s⁻¹ and a kon [2] of 700000 M⁻¹ s⁻¹.

B7: h32716-4-2 IgG (antibody, V domains shown)
VH: B5 VH
VL: B5 VL
notes: Human IgG format
B7 was tested, and the Kd [2] was 0.6 nM, the koff [2] was 0.00046 s⁻¹ and the kon [2] was 770000 M⁻¹ s⁻¹.

B8: h32716-6-2 IgG (antibody, V domains shown)
VH: B5 VH with R38K, L45F, E46K
VL: B5 VL
notes: Human IgG format
Binder B8 has a Kd [2] of 0.33 nM and a koff [2] of 0.0002 s⁻¹.

B9: 32716 IgM (CD123xCD3 IgM antibody) (bispecific antibody)
VH: QIQLVQSGPELKKPGETVKISCKASGYIFTNYGMNWVKQAPGKSFKWMGWINTYTGESTYSADFKGRFAFSLETSASTAYLHINDLKNEDTATYFCARSGGYDPMDYWGQGTSVTVSS
VL: DIVLTQSPASLAVSLGQRATISCRASESVDNYGNTFMHWYQQKPGQPPKLLIYRASNLESGIPARFSGSGSRTDFTLTINPVEADDVATYYCQQSNEDPPTFGAGTKLELK
J-chain: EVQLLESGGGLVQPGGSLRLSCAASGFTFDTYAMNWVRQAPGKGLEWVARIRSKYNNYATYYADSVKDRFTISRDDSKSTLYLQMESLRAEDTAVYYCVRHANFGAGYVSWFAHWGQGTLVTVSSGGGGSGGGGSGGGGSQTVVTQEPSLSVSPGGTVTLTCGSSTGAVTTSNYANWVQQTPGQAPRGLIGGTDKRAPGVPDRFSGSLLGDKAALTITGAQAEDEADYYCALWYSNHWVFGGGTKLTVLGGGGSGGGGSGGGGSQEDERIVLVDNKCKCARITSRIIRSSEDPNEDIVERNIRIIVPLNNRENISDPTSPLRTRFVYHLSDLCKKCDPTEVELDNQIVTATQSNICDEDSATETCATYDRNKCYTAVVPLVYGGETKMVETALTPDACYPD
notes: Pentameric IgM with J-chain; also called original mouse antibody
For B9, the Kd [1] was less than 0.001 nM, the koff [1] was less than 1e-07 s⁻¹ and the kon [1] was 4.1e+06 M⁻¹ s⁻¹. For the same binder, the “EC50 (read off the curve)” value (Human CD123) was roughly 0.03 nM.

B10: 32716 IgG (antibody, V domains shown)
VH: B9 VH
VL: B9 VL
notes: Parental mouse variable domains cloned into human IgG format; detected with anti-human kappa; also called original mouse antibody
B10 gave a Kd [2] of 0.44 nM, a koff [2] of 0.0003 s⁻¹ and a kon [2] of 710000 M⁻¹ s⁻¹.
